{
  "source": "patent US20080072349A1",
  "about": "(PIONEER HI BRED INTERNATIONAL, published 2008)",
  "binders": {"B1": {"name": "wild type Rubisco Activase (Arabidopsis, short form RCA1) (enzyme)", "chain": "MVKEDKQTDGDRWRGLAYDTSDDQQDITRGKGMVDSVFQAPMGTGTHHAVLSSYEYVSQGLRQYNLDNMMDGFYIAPAFMDKLVVHITKNFLTLPNIKVPLILGIWGGKGQGKSFQCELVMAKMGINPIMMSAGELESGNAGEPAKLIRQRYREAADLIKKGKMCCLFINDLDAGAGRMGGTTQYTVNNQMVNATLMNIADNPTNVQLPGMYNKEENARVPIICTGNDFSTLYAPLIRDGRMEKFYWAPTREDRIGVCKGIFRTDKIKDEDIVTLVDQFPGQSIDFFGALRARVYDDEVRKFVESLGVEKIGKRLVNSREGPPVFEQPEMTYEKLMEYGNMLVMEQENVKRVQLAETYLSQAALGDANADAIGRGTFYGKTEEKEPSKLE"}, "B2": {"name": "Rubisco Activase derived polypeptide 183H12 (enzyme)", "chain": "B1 chain with T274R"}, "B3": {"name": "Rubisco Activase derived polypeptide 182B11 (enzyme)", "chain": "B1 chain with M131I"}, "B4": {"name": "Rubisco Activase derived polypeptide 382D8 (enzyme)", "chain": "B1 chain with M131V, V257I, K310N"}, "B5": {"name": "Rubisco Activase derived polypeptide 214A4 (enzyme)", "chain": "B1 chain with M42T, T274R"}, "B6": {"name": "Rubisco Activase derived polypeptide 383A12 (enzyme)", "chain": "B1 chain with F168L, V257I, T274R, K310N"}, "B7": {"name": "Rubisco Activase derived polypeptide 301C7 (enzyme)", "chain": "B1 chain with F168L, V257I, K310N"}, "B8": {"name": "Rubisco Activase derived polypeptide 301H3 (enzyme)", "chain": "B1 chain with V257I, T274R, K310N"}, "B9": {"name": "Rubisco Activase derived polypeptide 079H6 (enzyme)", "chain": "B1 chain with M42T, M131I, R293K"}, "B10": {"name": "Rubisco Activase derived polypeptide 184B2 (enzyme)", "chain": "B1 chain with K310N"}, "B11": {"name": "Rubisco Activase derived polypeptide 126H4 (enzyme)", "chain": "B1 chain with M130R"}},
  "note": "Where a chain is given by its changes, count along the chain named.",
  "data": [
    {"molecular_target": "T1, purified deactivated Arabidopsis Rubisco (Ribulose-1,5-bisphosphate carboxylase/oxygenase) (Arabidopsis, UniProt O03042 3-479; P10795 55-180)", "experiment": "cell-based or functional assay", "units": {"activation state of Rubisco at 40° C. relative to reactions at 25° C.": "%"}, "values": [
      {"binder": "B1", "activation state of Rubisco at 40° C. relative to reactions at 25° C.": 70}
    ]},
    {"molecular_target": "T1, purified deactivated Arabidopsis …", "experiment": "cell-based or functional assay", "remark": "another data set of the same source", "units": {"Thermostability (%)": "%"}, "values": [
      {"binder": "B2", "Thermostability (%)": 82},
      {"binder": "B3", "Thermostability (%)": 84},
      {"binder": "B4", "Thermostability (%)": 90},
      {"binder": "B5", "Thermostability (%)": 92},
      {"binder": "B6", "Thermostability (%)": 103},
      {"binder": "B1", "Thermostability (%)": 66},
      {"binder": "B7", "Thermostability (%)": 98},
      {"binder": "B8", "Thermostability (%)": 89},
      {"binder": "B9", "Thermostability (%)": 88},
      {"binder": "B10", "Thermostability (%)": 84},
      {"binder": "B11", "Thermostability (%)": 97}
    ]},
    {"molecular_target": "T1, purified deactivated Arabidopsis …", "experiment": "cell-based or functional assay", "remark": "another data set of the same source", "units": {"Activation of deactivated Rubisco assay, T.S 45° C./25° C.": "%", "Activation of deactivated Rubisco assay, T.S 45 min at 40° C./15 min at 25° C.": "%", "Rubisco activation under catalytic conditions assay, T.S 40° C./25° C.": "%"}, "values": [
      {"binder": "B2", "Activation of deactivated Rubisco assay, T.S 45° C./25° C.": 52, "Activation of deactivated Rubisco assay, T.S 45 min at 40° C./15 min at 25° C.": 54, "Rubisco activation under catalytic conditions assay, T.S 40° C./25° C.": 77},
      {"binder": "B4", "Activation of deactivated Rubisco assay, T.S 45° C./25° C.": 86, "Activation of deactivated Rubisco assay, T.S 45 min at 40° C./15 min at 25° C.": 85, "Rubisco activation under catalytic conditions assay, T.S 40° C./25° C.": 93},
      {"binder": "B5", "Activation of deactivated Rubisco assay, T.S 45° C./25° C.": 58, "Activation of deactivated Rubisco assay, T.S 45 min at 40° C./15 min at 25° C.": 65, "Rubisco activation under catalytic conditions assay, T.S 40° C./25° C.": 74},
      {"binder": "B6", "Activation of deactivated Rubisco assay, T.S 45° C./25° C.": 92, "Activation of deactivated Rubisco assay, T.S 45 min at 40° C./15 min at 25° C.": 88, "Rubisco activation under catalytic conditions assay, T.S 40° C./25° C.": 97},
      {"binder": "B1", "Activation of deactivated Rubisco assay, T.S 45° C./25° C.": 50, "Activation of deactivated Rubisco assay, T.S 45 min at 40° C./15 min at 25° C.": 32, "Rubisco activation under catalytic conditions assay, T.S 40° C./25° C.": 67},
      {"binder": "B7", "Activation of deactivated Rubisco assay, T.S 45° C./25° C.": 84, "Activation of deactivated Rubisco assay, T.S 45 min at 40° C./15 min at 25° C.": 92, "Rubisco activation under catalytic conditions assay, T.S 40° C./25° C.": 83},
      {"binder": "B8", "Activation of deactivated Rubisco assay, T.S 45° C./25° C.": 89, "Activation of deactivated Rubisco assay, T.S 45 min at 40° C./15 min at 25° C.": 75, "Rubisco activation under catalytic conditions assay, T.S 40° C./25° C.": 78},
      {"binder": "B9", "Activation of deactivated Rubisco assay, T.S 45° C./25° C.": 63, "Activation of deactivated Rubisco assay, T.S 45 min at 40° C./15 min at 25° C.": 66, "Rubisco activation under catalytic conditions assay, T.S 40° C./25° C.": 82}
    ]}
  ]
}
